The record followed here is publication PMC2408616, “Modular Organization and Combinatorial Energetics of Proline–Tyrosine Nuclear Localization Signals” (PLoS Biology, 2008).

Sequences and labels used below:
B1: MBP–Nab2p NLS [S. cerevisiae] / Kap104p [yeast (S. cerevisiae)] (parent)
chain 1: DNSQRFTQRGGGAVGKNRRGGRGGNRGGRNNNSTRFNPLAKALGMAGESNM
chain 2: MASTWKPAEDYVLQLATLLQNCMSPNPEIRNNAMEAMENFQLQPEFLNYLCYILIEGESDDVLKQHYSLQDLQNNRATAGMLLKNSMLGGNNLIKSNSHDLGYVKSNIIHGLYNSNNNLVSNVTGIVITTLFSTYYRQHRDDPTGLQMLYQLLELTSNGNEPSIKALSKIMEDSAQFFQLEWSGNTKPMEALLDSFFRFISNPNFSPVIRSESVKCINTVIPLQTQSFIVRLDKFLEIIFQLAQNDENDLVRAQICISFSFLLEFRPDKLVSHLDGIVQFMLHLITTVNEEKVAIEACEFLHAFATSPNIPEHILQPYVKDIVPILLSKMVYNEESIVLLEASNDDDAFLEDKDEDIKPIAPRIVKKKEAGNGEDADDNEDDDDDDDDEDGDVDTQWNLRKCSAATLDVMTNILPHQVMDIAFPFLREHLGSDRWFIREATILALGAMAEGGMKYFNDGLPALIPFLVEQLNDKWAPVRKMTCWTLSRFSPWILQDHTEFLIPVLEPIINTLMDKKKDVQEAAISSVAVFIENADSELVETLFYSQLLTSFDKCLKYYKKKNLIILYDAIGRFAEKCALDETAMQIILPPLIEKWALLSDSDKELWPLLECLSCVASSLGERFMPMAPEVYNRAFRILCHCVELEAKSHQDPTIVVPEKDFIITSLDLIDGLVQGLGAHSQDLLFPQGTKDLTILKIMLECLQDPVHEVRQSCFALLGDIVYFFNSELVIGNLEDFLKLIGTEIMHNDDSDGTPAVINAIWALGLISERIDLNTYIIDMSRIILDLFTTNTQIVDSSVMENLSVTIGKMGLTHPEVFSSGAFANDSNWNKWCLSVNALDDVEEKSSAYMGFLKIINLTSTEVTMSNDTIHKIVTGLSSNVEANVFAQEIYTFLMNHSAQISAINFTPDEISFLQQFTS
B2: MBP–Hrp1p NLS [S. cerevisiae] / Kap104p [yeast (S. cerevisiae)] (parent)
chain 1: RDRNDRDRDYNHRSGGNHRRNGRGGRGGYNRRNNGYHPYNR
chain 2: B1 chain 2

Common to all, as to assay: ITC
Background: Isothermal titration calorimetry measures the heat released or taken up as one component is titrated into another.

Variants of B1 are the subject of assay [1]. Particulars: with Kap104p [yeast (S. cerevisiae)]; for ratio to parent: parent: 1; for dG: parent: -10.
The variants in assay [2] derive from B2. The note with it: with Kap104p [yeast (S. cerevisiae)].
The variants in assay [3] derive from B2. Particulars: with Kap104p [yeast (S. cerevisiae)]; for Kd: parent: 32 nM; for ratio to parent: parent: 1.

For the variant chain 1 R18K R19K R22K R26K R29K, in assay [1], the ddG was -0.4 kcal/mol, the screen value was -9.9 kcal/mol, the ratio to parent is 0.6 and the dG is -10.3 kcal/mol.
With chain 1 R18A R19A R22A R26A R29A P38A L39A, in assay [1], the ratio to parent is over 200.
For chain 1 F36L, in assay [1], the ddG was -0.3 kcal/mol, the screen value is -8.4 kcal/mol, the ratio to parent was 1.8 and the dG was -9.7 kcal/mol.
For the variant chain 1 R19K R20K R23K R26K, the screen value in assay [2] is -2.8 kcal/mol/K. Besides, in assay [3], the ddG was -0.05 kcal/mol; the screen value is -12.8 kcal/mol; the Kd (as a rule, the free concentration of one partner at which half of the binding sites on the other are occupied at equilibrium, for simple one-to-one binding) worked out at 36 nM; the ratio to parent was 1.1.
Turning to chain 1 R31A, the screen value in assay [2] was -1.8 kcal/mol/K. Moreover, in assay [3], the ddG was 0.07 kcal/mol, the screen value is -11.7 kcal/mol and the ratio to parent came to 1.1.
As to chain 1 R32A, in assay [2], the screen value is -2.2 kcal/mol/K. In addition, in assay [3], the ddG was -0.5 kcal/mol, the screen value is -12.7 kcal/mol and the ratio to parent came out at 0.4.
Consider chain 1 Y36A, for which the Kd in assay [3] came to 143 nM.
chain 1 Y36L: the screen value in assay [2] was -0.9 kcal/mol/K. Further, in assay [3], the ddG was -0.02 kcal/mol, the screen value is -10.9 kcal/mol and the ratio to parent was 1.1.
With chain 1 R19A Y36A, the screen value in assay [2] was -2.2 kcal/mol/K. In assay [3], the ddG was determined as 0.4 kcal/mol, the screen value was -11.9 kcal/mol, the Kd was 60 nM and the ratio to parent turned out to be 1.9.
Regarding chain 1 R19A R20A R23A R26A, the Kd in assay [3] was 194 nM.
